From US20100273983A1, “METHOD OF PURIFYING PEPTIDES BY SELECTIVE PRECIPITATION” (The University of Queensland, priority 2007, published 2010) come the findings set out here.

Holding throughout (format): physicochemical
The nature of series [1]: Ethanol precipitation of AM1-spiked E. coli cell lysate supernatant containing MBP; AM1 in supernatants and pellets by RP-HPLC. On the procedure: For the precipitation with ethanol the cell lysate supernatant was spiked with chemically synthesized AM1 peptide to a final concentration of 0.286 μg AM1 per μL. AM1 was custom synthesized by Genscript (Piscataway, USA). The purity was >95% by reversed-phase high performance liquid chromatography. The peptide was stored in a lyophilized form and was dissolved in 0.1% v/v TFA prior to use (cAm1=1 mg/mL).
For the ethanol precipitation experiment, 420 μL of AM1 (in 0.1% v/v TFA, 1 μg/μL) was added to 1050 μL of lysate supernatant and mixed by vortexing. The samples were prepared with different ethanol concentrations ranging from 50-75% (v/v).
The samples were incubated on a roller mixer at speed adjustment 7.5 for 17 h. The tubes were centrifuged at 15,000 rpm for 10 min. […] The protein present in the urea dissolved pellets, as well as the supernants was directly analyzed by Bradford and SDS-PAGE.
For quantitative analysis of AM1 peptide in the supernatants and pellets, reversed-phase high performance liquid chromatography (RP-HPLC) was used with an analytical C18 column (Jupiter 00F-4053-E0, Phenomenex, UK). […]
The retention time of AM1 at the above mentioned elution gradient and flow rate was tR=21.5 min. […] The following equation was used to determine the amount of AM1 in the supernatants and pellets as a function of the peak area detected by RP-HPLC: Detected peak area/1207925=μg of AM1 peptide.

Series [2] can be described thus: Solvent (ethanol/acetone) precipitation of TEVp cleaved Trx-P11-2 homogenate; peptide in supernatants and pellets by HPLC. As to the method: Homogenate was heat-treated by incubating samples in a water bath at 55° C. for 15 min. The effect on the solubility of the fusion protein was assessed by SDS-PAGE and HPLC analysis of heat-treated homogenate before and after centrifugation (10000×g, 10 min). The effect on the stability of the P11-2 peptide was analyzed by comparing cleavage reactions (at 0, 1, 2 and 3 h) with a final substrate concentration of 160 μM Trx-P11-2 and 8 μM TEVp, prepared with heat-treated and non heat-treated homogenate. Conditions were optimized by evaluating reactions prepared with 8 μM TEVp and 160, 240 and 320 μM Trx-P11-2 after 0, 1, 2 and 3 h. The effect of salt on enzyme activity was assessed by analyzing cleavage reactions prepared with 8 μM TEVp and 320 μM Trx-P11-2, that were supplemented with either 50, 150 or 250 mM NaCl. These cleavage reactions were analyzed at 0, 1, 2 and 3 h by SDS-PAGE and HPLC. After 3 h, ethanol was added to a final concentration of 75% (v/v) and samples were incubated at room temperature for 10 min before centrifuging at 10 000×g for 5 min. The supernatants were diluted with water to reduce the percentage of ethanol and analyzed by HPLC.
All precipitation experiments were performed with the same batch of Trx-P11-2, cleaved with a 40:1 (substrate:enzyme) molar ratio, a substrate concentration of 320 μM (5.12 mg ml^−1) and in the presence of 250 mM NaCl. The precipitation samples were centrifuged for 5 min at 10000×g, and the supernatants collected and analyzed by HPLC to quantify the peptide present. The pellets were resuspended in 6 M guanidine hydrochloride to the same volume as the supernatants, and analysed by HPLC. Acetone and ethanol precipitations were performed using HPLC grade ethanol and acetone, which was added to samples to final concentrations of 20, 40, 60, 65, 70, 75, 80, and 85% (v/v) before incubating for 10 min at room temperature and centrifuging for 5 min at 10000×g. The supernatants were collected and dried using an RVC 2-18 speed-vac (Christ, Osterode, Germany), the pellets were air-dried and both were resuspended in 6 M guanidine hydrochloride. The samples were analyzed by HPLC to quantify the peptide and Bradford assay to quantify the total protein remaining. The peptide and protein remaining in the pellets and supernatants were compared to the results obtained for the starting cleavage reactions to determine the percentages of peptide and protein in each fraction.
Reversed-phase HPLC(RP-HPLC) was carried out using an analytical C5 column (Jupiter, 150 mm×4.6 mm, 5μ, 300 Å) (Phenomenex, Torrance, Calif., USA) connected to a LC-10Avp series HPLC system (Shimadzu, Kyoto, Japan) with a mobile phase A, 0.1% (v/v) trifluoroacetic acid (TFA) in water and B, 90% (v/v) acetonitrile, 0.1% (v/v) TFA in water. Initial analysis of fusion protein and cleavage was performed using a linear gradient from 10% B to 60% B in 50 min at a flow rate of 1 ml min^−1. Peptides were analyzed, collected and quantified using a linear gradient from 10% B to 35% B in 25 min. Final peptide preparation was assessed using a linear gradient from 10% B to 90% B in 80 min. All samples were diluted 1:2 in 6 M guanidine-HCl prior to injection for the purpose of column preservation unless stated otherwise.

Series [3] in a line: Stability of peptide and fusion protein in cell homogenate (TEVp cleavage reactions, HPLC/SDS-PAGE). Conditions: homogenate without heat-treatment; degradation most likely by cellular proteases. On the procedure:
All cleavage reactions were performed with recombinant TEVp, using homogenate prepared as above, where the Trx-P11-2 content had been HPLC quantified. Cleavage reactions were performed in TEVp reaction buffer, at room temperature, in sealed tubes that had been purged of air with nitrogen. All reactions were stopped by the addition of equal volumes of either 6 M guanidine hydrochloride or 2×SDS-PAGE sample buffer and analyzed by HPLC (to quantify peptide generation) and SDS-PAGE (to confirm cleavage of the fusion protein), respectively.
Homogenate was heat-treated by incubating samples in a water bath at 55° C. for 15 min. […] The effect on the stability of the P11-2 peptide was analyzed by comparing cleavage reactions (at 0, 1, 2 and 3 h) with a final substrate concentration of 160 μM Trx-P11-2 and 8 μM TEVp, prepared with heat-treated and non heat-treated homogenate. […] The effect of salt on enzyme activity was assessed by analyzing cleavage reactions prepared with 8 μM TEVp and 320 μM Trx-P11-2, that were supplemented with either 50, 150 or 250 mM NaCl. These cleavage reactions were analyzed at 0, 1, 2 and 3 h by SDS-PAGE and HPLC. […] The supernatants were diluted with water to reduce the percentage of ethanol and analyzed by HPLC.

A short description of series [4]: Solvent (ethanol/acetone) precipitation of TEVp cleaved Trx-P11-2 homogenate; peptide in supernatants and pellets by HPLC. This is another data set of the same source.

Some results are limits rather than exact numbers.

As for “Ac-MKQLADSLHQLARQVRSLEHA-CONH2 (Ac-MKQLADSLHQLARQVRSLEHA-NH2) [AM1]”, in series [1] (ethanol 50-75% (v/v), 23° C., 17 h, relative to AM1 in starting material), the “percentage of AM1 present in the precipitate” value is “approximately 5%”. In addition, the “peptide in the original lysate recovered from the supernatant” value in series [1] (precipitation at greater than 65% (v/v) ethanol) is “Over 80%”.
For QQRFQWQFEQQ [P11-2], the “yield of peptide in the supernatant after precipitation” value is given as 55% in series [2] (50 mM NaCl, 75% (v/v) ethanol); 81% in series [2] (150 mM NaCl, 75% (v/v) ethanol); 95% in series [2] (250 mM NaCl, 75% (v/v) ethanol). For the same substance, the “peptide losses on acetone precipitation” value in series [2] (75% (v/v) acetone, 250 mM salt) is reported as “exceeding 30%”. In addition, the “peptide yield on ethanol precipitation” value in series [2] (75% (v/v) ethanol, 250 mM salt) was “over 90%”. Also, the “solubility of peptide in acetone” value in series [2] (85% (v/v) acetone, 250 mM salt) is recorded as “almost completely insoluble”. Also, the “losses of peptide on ethanol precipitation” value in series [2] (85% (v/v) ethanol, 250 mM salt) is recorded as greater than 70%. Besides, the “yield of peptide after removal of contaminating proteins with solvent precipitation” value in series [2] (finalized process, 1 L culture, 75% (v/v) ethanol, 250 mM NaCl) is recorded as 95%. Moreover, in series [2] (room temperature, 70-75% (v/v) ethanol or acetone, 250 mM salt), the “losses of peptide on precipitation” value was less than 5%. In addition, the stability in homogenate entry in series [3] is on record as “quickly degraded”. In addition, the “solubility of purified peptide at high solvent concentrations” value in series [4] (purified peptide, results not shown) is “soluble”. The “behaviour of peptide on solvent precipitation without salt” value in series [4] (standard TEVp reaction buffer (10 mM Tris-Cl, 0.5 mM EDTA, 5 mM DTT, pH 8.0), in homogenate) is “co-precipitated with the contaminating proteins”.
